Source: patent publication US20250340625A1, “ANTIBODY SPECIFICALLY BINDING TO ANGIOPOIETIN-2, OR FRAGMENT THEREOF” (NEORTESBIO INC., priority 2021, published 2025)

What was measured:
[1] = test system: Tie2 downstream signaling (AKT phosphorylation) in HUVEC cells; assay: Phospho-Akt1 (Ser473) sandwich ELISA of Tie2 downstream signaling in HUVEC cells; format: cell-based
Method: To quantitatively analyze the effect of anti-Ang2 antibodies on Tie2 downstream signaling, the level of AKT phosphorylation was measured using ELISA.
HUVEC (Lonza) cells (2×10^5) were cultured at 37° C. using EGM-2 (Lonza) medium, and when 80-90% confluency was observed, they were changed to 0.5% FBS Basal media (Lonza) and cultured at 37° C. for 16 to 24 hours. 60 nM of anti-Ang2 antibody was mixed with 40 nM of Ang2 protein (Sino Biological) and left for 30 minutes. Then, the cultured cells were treated and incubated for another 10 minutes. For comparison, groups treated with 40 nM of Ang2, 40 nM of Ang2+60 nM of anti-Ang2 control antibody (h10D6-OPTI-67, U.S. Pat. No. 10,934,350) were prepared. The cells were washed with PBS, treated with the lysis buffer, centrifuged at 13,000 rpm for 15 minutes, and the supernatant was recovered to obtain a cell lysate.
For ELISA, 50 μL of PathScan®Phospho-Akt1 (Ser473) Sandwich ELISA Antibody Pair (Cell signaling) capture antibody diluted 1:100 was added to a 96 well ps half area plate (Greiner cio-one) and coated. Then, the plate was washed four times with PBST (Phosphate Buffer Saline containing 0.05% (v/v) Tween-20) and then blocked with PBST containing 1% (v/v) skim milk at 37° C. for […]. […] Afterwards, 50 μL of Stop solution was added to stop the reaction, and the OD450 value was measured on a plate reader (BioTek).

[2] = test system: Tie2 receptor downstream signaling in HUVEC cells; assay: Western blot of AKT and ERK 42/44 phosphorylation (Tie2 downstream signaling) in HUVEC cells; format: cell-based; conditions: 60 nM anti-Ang2 antibody mixed with 40 nM Ang2, 10 minutes, FIG. 1
Method: Ang2 binds to the Tie2 receptor expressed on vascular endothelial cells and acts as a weak agonist or antagonist. Since the anti-Ang2 antibody developed in the present invention binds to Ang2 and forms a complex with Ang2-Tie2, thereby activating the Tie2 receptor and promoting downstream signaling, ERK and AKT phosphorylation experiments were performed to analyze the effect of anti-Ang2 antibodies on Tie2 downstream signaling using a cell-based assay. To compare the degree of activation of Tie2 downstream signaling, the same test was performed on the group treated with Ang2 (Sino Biological) and another Ang2 control antibody (Korean Patent Publication No. 10-2015-0136031).
Specifically, HUVEC (Lonza) cells (2×10^5) were cultured at 37° C. using EGM-2 (Lonza) medium, and when 80-90% confluency was observed, they were changed to 0.5% FBS Basal media (Lonza) for […]. Cultured at 37° C. for […]. 60 nM of anti-Ang2 antibody was mixed with 40 nM of Ang2 protein (Sino Biological) and left for 30 minutes. Then, the cultured cells were treated and incubated for another 10 minutes. For comparison, groups treated with 40 nM Ang2 and 40 nM Ang2+60 nM anti-Ang2 control antibody were prepared. […]

B1: 1D3: mouse anti-Ang2 monoclonal antibody; CDRs SEQ ID NO: 18-23, VH SEQ ID NO: 24, VL SEQ ID NO: 25 (antibody, V domains shown)
VH: DVQLQESGPGLVKPSQSLSLTCTVTGYSITSDYGWNWIRQFPGNKLEWMGYISYSGTTSYNPSLKSRISITRDTSKNQFFLQLNSVTTEDTATYYCARSEGTGFYAMDYWGQGTSVTVSSAKTTPPKLY
VL: SIVMTQTPKFLLVSAGDRVTIICKASQSVSNDVAWYQQKPGQSPKLLIYYASNRYTGVPDRFTGSGYGTDFTFTISTVQAEDLAVYFCQQDYSSPTFGGGTKLEIKRA
modifications: VH; VL
In the case of B1, the “Order of AKT phosphorylation curves in FIG. 2, from the curve with the highest value” ([1]; HUVEC cells together with Ang2, printed order 1D3, 2C8, 1A9, 1H10, control 67 clone) is reported as “highest”, the “Tie2 downstream signal (AKT phosphorylation ELISA) compared to previously known control antibodies” value ([1]; HUVEC cells, antibody together with 40 nM Ang2, OD450, FIG. 2) is reported as “significantly stronger Tie2 downstream signal” and the “AKT and ERK activation signals (western blot) compared to the negative control group” value [2] is reported as “showed AKT and ERK activation signals”.
